These results are taken from patent US7314716B2, “Gustducin γ subunit materials and methods” (Mount Sinai School of Medicine, priority 1999, dated 2008).

The target of one experiment is T1, β1 subunit (Homo sapiens, UniProt P62873).
T1 construct: made in house; host or cells: cell-free in vitro transcription/translation
The experiment in a line: Trypsin assay of βγ dimer formation. Format: binding. To be noted: cotranslated in vitro with β1 subunit. How it is done: To determine which β and gustducin γ subunit combinations were capable of forming dimers another trypsin assay was utilized. β monomers are cleaved at numerous sites by trypsin, whereas βγ dimers are cleaved at a single site, resulting in the appearance of a 26-kDa fragment of the β subunit. See Schmidt et al., J. Biol. Chem., 267: 13807–13810 (1992).
Plasmid DNAs (0.5 μg) encoding β1 subunit was transcribed and translated in vitro, in the presence or absence of plasmid DNA (0.5 μg) coding for the gustducin γ subunit. Aliquots (10 μl) of the cotranslated βγ mix or β subunit alone were digested by TPCK-treated trypsin (1 μg) in a final volume of 20 μl (with 50 mM Na-HEPES pH 8.0). After incubation for 1 hour at 30° C., the digestions were stopped by addition of 6 μg SBTI as described above. Protected fragments of β subunits were analyzed on 15% SDS-PAGE. Detection was as described above.
In the assay, β1 formed dimers with gustducin γ subunit that were protected from trypsin digestion.

The target in another experiment is T2, gustducin α subunit (Rattus norvegicus, UniProt P29348).
T2 construct: made in house; host or cells: cell-free in vitro transcription/translation (Promega TNT system)
T2 sequence (P29348 2-354 limits assumed): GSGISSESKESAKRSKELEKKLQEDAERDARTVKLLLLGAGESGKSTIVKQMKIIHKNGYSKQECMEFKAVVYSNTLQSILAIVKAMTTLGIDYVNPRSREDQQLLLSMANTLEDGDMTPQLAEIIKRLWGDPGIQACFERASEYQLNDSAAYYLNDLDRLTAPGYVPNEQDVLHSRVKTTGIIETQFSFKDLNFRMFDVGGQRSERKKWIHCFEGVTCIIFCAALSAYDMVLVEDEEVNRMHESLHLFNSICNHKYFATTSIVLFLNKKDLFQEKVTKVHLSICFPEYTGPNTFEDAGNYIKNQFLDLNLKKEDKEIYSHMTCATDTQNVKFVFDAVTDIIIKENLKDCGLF
Nature of the experiment: Trypsin protection assay of G protein α and γ subunit interaction. The format is binding. To be noted: in vitro translated γ and α subunits mixed 3:1, without β subunit. An excerpt:
The interaction was confirmed using a trypsin protection assay that detects the direct interaction of G protein α and γ subunits. The assay is based on the fact that γ subunits, in the absence of β subunits, can interact directly with α subunits, and that this interaction apparently dictates which βγ dimer associates with which α subunit. See Rahmatullah & Robishaw, J. Biol. Chem., 269: 3574–3580 (1994).
To monitor G protein α and γ subunit interactions, gustducin γ and α subunit DNAs were transcribed and translated in vitro using the Promega TNT system, mixed in a 3:1 ratio, and incubated for 15 minutes at 30° C. in buffer G [15 mM Na-HEPES pH 8.0, 250 mM NaCl, 0.6 mM EDTA, 0.6 mM DTT, 5 mM MgCl2, 0.1 mM GDP and 0.3% polyoxyethylene 10-lauryl ether (LPX)]. The assay was initiated by adding Tosyl-L-phenylalanine chloromethyl ketone (TPCK) treated-trypsin (0.5 μg), incubated for 1 hour at 30° C., and terminated with 3 μg soybean trypsin inhibitor (SBTI) (15 min, at 30° C.). The samples were analyzed on 12% SDS-PAGE, gels were fixed, enhanced with En^3Hance (NEN), dried and exposed to X-ray film.
Other Gγ subunits were also tested in the assay.

T1 sequence (P62873 whole entry): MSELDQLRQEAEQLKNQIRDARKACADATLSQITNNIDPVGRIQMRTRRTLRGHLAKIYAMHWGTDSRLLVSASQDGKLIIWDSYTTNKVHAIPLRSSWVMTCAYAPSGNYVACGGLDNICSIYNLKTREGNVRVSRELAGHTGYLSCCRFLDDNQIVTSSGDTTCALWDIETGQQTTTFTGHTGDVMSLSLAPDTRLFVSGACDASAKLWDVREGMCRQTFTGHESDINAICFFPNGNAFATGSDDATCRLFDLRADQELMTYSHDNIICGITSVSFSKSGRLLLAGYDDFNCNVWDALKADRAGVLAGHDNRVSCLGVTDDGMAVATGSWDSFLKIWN
T1 sequence (Q9P2W3 whole entry partner): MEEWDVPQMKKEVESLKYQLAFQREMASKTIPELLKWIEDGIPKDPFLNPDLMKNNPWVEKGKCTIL

B1: Gustducin γ subunit: γ subunit of the taste cell G protein gustducin, 67 amino acids, designated Gγ13 (protein, listed as Mus musculus)
chain: MEEWDVPQMKKEVESLKYQLAFKREMSSKTIPELLKWIEDGIPKDPFLNPDLMKNNPWVEKAKCTIL
modifications: ends and bridges not checked
notes: γ subunit of the taste cell G protein gustducin, 67 amino acids, designated Gγ13
For B1, in the experiment with β1 subunit, the “dimer formation with β1, protected from trypsin digestion” value is listed as “formed dimers”. For the same molecule, the “protection of gustducin α subunit from tryptic digestion” value (shortened to “protection of gustducin α subunit”) in the experiment with gustducin α subunit was “protected gustducin α subunit from tryptic digestion to a significant extent”.

B2: cone γ8 subunit: the cone transducin α subunit partner (protein)
chain: MAQDLSEKDLLKMEVEQLKKEVKNTRIPISKAGKEIKEYVEAQAGNDPFLKGIPEDKNPFKEKGGCLIS
modifications: ends and bridges not checked
notes: the cone transducin α subunit partner
On to B2, for which the “protection of gustducin α subunit” value with gustducin α subunit is given as “unable to protect”.

B3: Gγ1: G protein γ subunit which interacts with the rod transducin α subunit (protein)
chain: PVINIEDLTEKDKLKMEVDQLKKEVTLERMLVSKCCEEFRDYVEERSGEDPLVKGIPEDKNPFKELKGGC
Turning to B3, the “protection of gustducin α subunit” value in the experiment with gustducin α subunit is listed as “appeared to interact with gustducin α subunit, albeit to a lesser extent”.

B4: Gγ5: G protein γ5 subunit (protein)
chain: SGSSSVAAMKKVVQQLRLEAGLNRVKVSQAAADLKQFCLQNAQHDPLLTGVSSSTNPFRPQKVC
With B4, the “protection of gustducin α subunit” value with gustducin α subunit is on record as “unable to protect”.
